# B1: HSF1 (protein, UniProt Q00613 1-529, looked up)
# Heat shock factor protein 1: MDLPVGPGAAGPSNVPAFLTKLWTLVSDPDTDALICWSPSGNSFHVFDQGQFAKEVLPKYFKHNNMASFVRQLNMYGFRKVVHIEQGGLVKPERDDTEFQHPCFLRGQEQLLENIKRKVTSVSTLKSEDIKIRQDSVTKLLTDVQLMKGKQECMDSKLLAMKHENEALWREVASLRQKHAQQQKVVNKLIQFLISLVQSNRILGVKRKIPLMLNDSGSAHSMPKYSRQFSLEHVHGSGPYSAPSPAYSSSSLYAPDAVASSGPIISDITELAPASPMASPGGSIDERPLSSSPLVRVKEEPPSPPQSPRVEEASPGRPSSVDTLLSPTALIDSILRESEPAPASVTALTDARGHTDTEGRPPSPPPTSTPEKCLSVACLDKNELSDHLDAMDSNLDNLQTMLSSHGFSVDTSALLDLFSPSVTVPDMSLPDLDSSLASIQELLSPQEPPRPPEAENSSPDSGKQLVHYTAQPLFLLDPGSVDTGSNDLPVLFELGEGSYFSEGDGFAEDPTISLLTGSEPPKAKDPTVS
# B2: HSFY1 (protein, UniProt Q96LI6 1-401, looked up)
# Heat shock transcription …: MAHVSSETQDVSPKDELTASEASTRSPLCEHTFPGDSDLRSMIEEHAFQVLSQGSLLESPSYTVCVSEPDKDDDFLSLNFPRKLWKIVESDQFKSISWDENGTCIVINEELFKKEILETKAPYRIFQTDAIKSFVRQLNLYGFSKIQQNFQRSAFLATFLSEEKESSVLSKLKFYYNPNFKRGYPQLLVRVKRRIGVKNASPISTLFNEDFNKKHFRAGANMENHNSALAAEASEESLFSASKNLNMPLTRESSVRQIIANSSVPIRSGFPPPSPSTSVGPSEQIATDQHAILNQLTTIHMHSHSTYMQARGHIVNFITTTTSQYHIISPLQNGYFGLTVEPSAVPTRYPLVSVNEAPYRNMLPAGNPWLQMPTIADRSAAPHSRLALQPSPLDKYHPNYN
# B3: HSBP1 (protein, UniProt O75506 1-76, looked up)
# Heat shock factor-binding …: MAETDPKTVQDLTSVVQTLLQQMQDKFQTMSDQIIGRIDDMSSRIDDLEKNIADLMTQAGVEELESENKIPATQKS
# B4: ID4 (protein, UniProt P47928 1-161, looked up)
# DNA-binding protein inhibitor …: MKAVSPVRPSGRKAPSGCGGGELALRCLAEHGHSLGGSAAAAAAAAAARCKAAEAAADEPALCLQCDMNDCYSRLRRLVPTIPPNKKVSKVEILQHVIDYILDLQLALETHPALLRQPPPPAPPHHPAGTCPAAPPRTPLTALNTDPAGAVNKQGDSILCR
# B5: ING1L (protein, UniProt Q9H160 1-280, looked up)
# Inhibitor of growth protein 2: MLGQQQQQLYSSAALLTGERSRLLTCYVQDYLECVESLPHDMQRNVSVLRELDNKYQETLKEIDDVYEKYKKEDDLNQKKRLQQLLQRALINSQELGDEKIQIVTQMLELVENRARQMELHSQCFQDPAESERASDKAKMDSSQPERSSRRPRRQRTSESRDLCHMANGIEDCDDQPPKEKKSKSAKKKKRSKAKQEREASPVEFAIDPNEPTYCLCNQVSYGEMIGCDNEQCPIEWFHFSCVSLTYKPKGKWYCPKCRGDNEKTMDKSTEKTKKDRRSR
# B6: IDB3 (protein, UniProt Q02535 1-119, looked up)
# DNA-binding protein inhibitor …: MKALSPVRGCYEAVCCLSERSLAIARGRGKGPAAEEPLSLLDDMNHCYSRLRELVPGVPRGTQLSQVEILQRVIDYILDLQVVLAEPAPGPPDGPHLPIQTAELTPELVISNDKRSFCH
# B7: ARID5B (protein, UniProt Q14865 1-1188, looked up)
# AT-rich interactive …: MEPNSLQWVGSPCGLHGPYIFYKAFQFHLEGKPRILSLGDFFFVRCTPKDPICIAELQLLWEERTSRQLLSSSKLYFLPEDTPQGRNSDHGEDEVIAVSEKVIVKLEDLVKWVHSDFSKWRCGFHAGPVKTEALGRNGQKEALLKYRQSTLNSGLNFKDVLKEKADLGEDEEETNVIVLSYPQYCRYRSMLKRIQDKPSSILTDQFALALGGIAVVSRNPQILYCRDTFDHPTLIENESICDEFAPNLKGRPRKKKPCPQRRDSFSGVKDSNNNSDGKAVAKVKCEARSALTKPKNNHNCKKVSNEEKPKVAIGEECRADEQAFLVALYKYMKERKTPIERIPYLGFKQINLWTMFQAAQKLGGYETITARRQWKHIYDELGGNPGSTSAATCTRRHYERLILPYERFIKGEEDKPLPPIKPRKQENSSQENENKTKVSGTKRIKHEIPKSKKEKENAPKPQDAAEVSSEQEKEQETLISQKSIPEPLPAADMKKKIEGYQEFSAKPLASRVDPEKDNETDQGSNSEKVAEEAGEKGPTPPLPSAPLAPEKDSALVPGASKQPLTSPSALVDSKQESKLCCFTESPESEPQEASFPSFPTTQPPLANQNETEDDKLPAMADYIANCTVKVDQLGSDDIHNALKQTPKVLVVQSFDMFKDKDLTGPMNENHGLNYTPLLYSRGNPGIMSPLAKKKLLSQVSGASLSSSYPYGSPPPLISKKKLIARDDLCSSLSQTHHGQSTDHMAVSRPSVIQHVQSFRSKPSEERKTINDIFKHEKLSRSDPHRCSFSKHHLNPLADSYVLKQEIQEGKDKLLEKRALPHSHMPSFLADFYSSPHLHSLYRHTEHHLHNEQTSKYPSRDMYRESENSSFPSHRHQEKLHVNYLTSLHLQDKKSAAAEAPTDDQPTDLSLPKNPHKPTGKVLGLAHSTTGPQESKGISQFQVLGSQSRDCHPKACRVSPMTMSGPKKYPESLSRSGKPHHVRLENFRKMEGMVHPILHRKMSPQNIGAARPIKRSLEDLDLVIAGKKARAVSPLDPSKEVSGKEKASEQESEGSKAAHGGHSGGGSEGHKLPLSSPIFPGLYSGSLCNSGLNSRLPAGYSHSLQYLKNQTVLSPLMQPLAFHSLVMQRGIFTSPTNSQQLYRHLAAATPVGSSYGDLLHNSIYPLAAINPQAAFPSSQLSSVHPSTKL
# B8: ARL2BP (protein, UniProt Q9Y2Y0 1-163, looked up)
# ADP-ribosylation factor-like …: MDALEGESFALSFSSASDAEFDAVVGYLEDIIMDDEFQLLQRNFMDKYYLEFEDTEENKLIYTPIFNEYISLVEKYIEEQLLQRIPEFNMAAFTTTLQHHKDEVAGDIFDMLLTFTDFLAFKEMFLDYRAEKEGRGLDLSSGLVVTSLCKSSSLPASQNNLRH
# B9: IFI16 (protein, UniProt Q16666 1-785, looked up)
# Gamma-interferon-inducible …: MGKKYKNIVLLKGLEVINDYHFRMVKSLLSNDLKLNLKMREEYDKIQIADLMEEKFRGDAGLGKLIKIFEDIPTLEDLAETLKKEKLKVKGPALSRKRKKEVDATSPAPSTSSTVKTEGAEATPGAQKRKKSTKEKAGPKGSKVSEEQTQPPSPAGAGMSTAMGRSPSPKTSLSAPPNSSSTENPKTVAKCQVTPRRNVLQKRPVIVKVLSTTKPFEYETPEMEKKIMFHATVATQTQFFHVKVLNTSLKEKFNGKKIIIISDYLEYDSLLEVNEESTVSEAGPNQTFEVPNKIINRAKETLKIDILHKQASGNIVYGVFMLHKKTVNQKTTIYEIQDDRGKMDVVGTGQCHNIPCEEGDKLQLFCFRLRKKNQMSKLISEMHSFIQIKKKTNPRNNDPKSMKLPQEQRQLPYPSEASTTFPESHLRTPQMPPTTPSSSFFTKKSEDTISKMNDFMRMQILKEGSHFPGPFMTSIGPAESHPHTPQMPPSTPSSSFLTTKSEDTISKMNDFMRMQILKEGSHFPGPFMTSIGPAESHPHTPQMPPSTPSSSFLTTLKPRLKTEPEEVSIEDSAQSDLKEVMVLNATESFVYEPKEQKKMFHATVATENEVFRVKVFNIDLKEKFTPKKIIAIANYVCRNGFLEVYPFTLVADVNADRNMEIPKGLIRSASVTPKINQLCSQTKGSFVNGVFEVHKKNVRGEFTYYEIQDNTGKMEVVVHGRLTTINCEEGDKLKLTCFELAPKSGNTGELRSVIHSHIKVIKTRKNKKDILNPDSSMETSPDFFF
# B10: IKZF1 (protein, UniProt Q13422 1-519, looked up)
# DNA-binding protein Ikaros: MDADEGQDMSQVSGKESPPVSDTPDEGDEPMPIPEDLSTTSGGQQSSKSDRVVASNVKVETQSDEENGRACEMNGEECAEDLRMLDASGEKMNGSHRDQGSSALSGVGGIRLPNGKLKCDICGIICIGPNVLMVHKRSHTGERPFQCNQCGASFTQKGNLLRHIKLHSGEKPFKCHLCNYACRRRDALTGHLRTHSVGKPHKCGYCGRSYKQRSSLEEHKERCHNYLESMGLPGTLYPVIKEETNHSEMAEDLCKIGSERSLVLDRLASNVAKRKSSMPQKFLGDKGLSDTPYDSSASYEKENEMMKSHVMDQAINNAINYLGAESLRPLVQTPPGGSEVVPVISPMYQLHKPLAEGTPRSNHSAQDSAVENLLLLSKAKLVPSEREASPSNSCQDSTDTESNNEEQRSGLIYLTNHIAPHARNGLSLKEEHRAYDLLRAASENSQDALRVVSTSGEQMKVYKCEHCRVLFLDHVMYTIHMGCHGFRDPFECNMCGYHSQDRYEFSSHITRGEHRFHMS
# B11: IKZF2 (protein, UniProt Q9UKS7 1-526, looked up)
# Zinc finger protein Helios: METEAIDGYITCDNELSPEREHSNMAIDLTSSTPNGQHASPSHMTSTNSVKLEMQSDEECDRKPLSREDEIRGHDEGSSLEEPLIESSEVADNRKVQELQGEGGIRLPNGKLKCDVCGMVCIGPNVLMVHKRSHTGERPFHCNQCGASFTQKGNLLRHIKLHSGEKPFKCPFCSYACRRRDALTGHLRTHSVGKPHKCNYCGRSYKQRSSLEEHKERCHNYLQNVSMEAAGQVMSHHVPPMEDCKEQEPIMDNNISLVPFERPAVIEKLTGNMGKRKSSTPQKFVGEKLMRFSYPDIHFDMNLTYEKEAELMQSHMMDQAINNAITYLGAEALHPLMQHPPSTIAEVAPVISSAYSQVYHPNRIERPISRETADSHENNMDGPISLIRPKSRPQEREASPSNSCLDSTDSESSHDDHQSYQGHPALNPKRKQSPAYMKEDVKALDTTKAPKGSLKDIYKVFNGEGEQIRAFKCEHCRVLFLDHVMYTIHMGCHGYRDPLECNICGYRSQDRYEFSSHIVRGEHTFH
# B12: HSFX1 (protein, UniProt Q9UBD0 1-423, looked up)
# Heat shock transcription …: MEDKRSLSMARCEERNSRGQDHGLERVPFPPQLQSETYLHPADPSPAWDDPGSTGSPNLRLLTEEIAFQPLAEEASFRRPHPDGDVPPQGEDNLLSLPFPQKLWRLVSSNQFSSIWWDDSGACRVINQKLFEKEILKRDVAHKVFATTSIKSFFRQLNLYGFRKRRQCTFRTFTRIFSAKRLVSILNKLEFYCHPYFQRDSPHLLVRMKRRVGVKSAPRHQEEDKPEAAGSCLAPADTEQQDHTSPNENDQVTPQHREPAGPNTQIRSGSAPPATPVMVPDSAVASDNSPVTQPAGEWSEGSQAHVTPVAAVPGPAALPFLYVPGSPTQMNSYGPVVALPTASRSTLAMDTTGLPAPGMLPFCHLWVPVTLVAAGAAQPAASMVMFPHLPALHHHCPHSHRTSQYMPASDGPQAYPDYADQST
# Tested on: HEK293FT cells transfected with TF library
# Assay: Screening of TF condensates based on fluorescent puncta
# Format: cell-based
# Details: Figure 1B numerical data; TF library screen, one value per transcriptional factor
# In short: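 HEK293FT cells were reverse-transfected with Flag- or GAL4-tagged TF plasmids (1.6 μg/ml, PEI). After 60 h, cells were cultured 12 h with or without glucose, then fixed and immunostained with anti-Flag or anti-GAL4 and Alexa 488 secondaries. Fluorescent puncta were imaged over fifty random fields per well by high-content imaging.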
row,Molecule,Z score of condensed fraction
1,B1,-1.041
2,B2,0.153
3,B3,-0.06777
4,B4,-0.9102
5,B5,-0.141
6,B6,-0.588
7,B7,-1.099
8,B8,1.651
9,B9,-0.2342
10,B10,0.01528
11,B11,1.456
12,B12,-0.6149
